Data as given in patent publication US8663616B2, “Enzymatic peracid generation for use in oral care products” (E I du Pont de Nemours and Company, priority 2010, dated 2014).

How the values were obtained:
[1] = Peracetic acid generation from hydroxyapatite bound CE-7 perhydrolase fusions (Example 8); assay type: biochemical; conditions: for Peracetic acid (ppm): hydroxyapatite particles exposed to 10 μM enzyme, washed, 100 mM triacetin, 100 mM H2O2, 30 min, 37° C., no enzyme 30-118.8
Procedure: (§1) The detection of peracetic acid followed the method described in Pinkernell et. al. (Analyst, 1997, 122, 567) using colorimetric detection of 2,2′-azino-bis(3-ethylbenzothiazoline(-6-sulfonate (ABTS) oxidation by peracetic acid. Following the formation of peracetic acid with the addition of triacetin and hydrogen peroxide, 90 μL of solution was added to 10 μL of 0.1 M H3PO4 in a well plate. 50 μL of 1 M acetic acid, 50 μL of 0.5 g/L ABTS and 50 μL of 0.002 g/L of KI was added. The solution was allowed to develop for 5 min. The absorbance of the solution was measured at 405 nm using a microplate reader. The peracetic acid concentration was calculated based on a standard curve developed simultaneously using peracetic acid reagent solution.
To assess binding of these constructs to hydroxyapatite, 33 mg of hydroxyapatite particles (Macro-prep Ceramic Hydroxyapatite TYPE I, 80 μm size BioRad, Hercules, Calif.), were washed with 10 mM phosphate buffer at pH 7.2. After removing the supernatant, enzyme stock solution was added to the hydroxyapatite dispersion to a final concentration of 10 μM and incubated for 30 min in a microcentrifuge tube with gentle agitation. Each sample was centrifuged for 1 min at 10000 rpm. The supernatant was removed and additional buffer was added. The particles were resuspended and transferred to a new tube. The process was repeated two additional times. The hydroxyapatite bound enzyme activity was measured by adding a 500 μl solution containing 100 mM triacetin, 100 mM H2O2 in 100 mM phosphate buffer, pH 7.2. The solution was incubated for 30 min, at 37° C. An aliquot was removed and mixed with H3PO4 and properly diluted for detection via ABTS oxidation as described in Example 7. The experiments were performed at different day with no enzyme as control for each experiment.

[2] = Peracetic acid generated in solution by CE-7 perhydrolase fusions (Example 8); assay type: biochemical; conditions: 0.5 μM enzyme, 100 mM triacetin, 100 mM H2O2, pH 7.2, 10 min, 37° C.; no enzyme 378.9
Procedure: as §1
Perhydrolase enzymes listed in Table 6 were assessed for solution activities. The method to measure the perhydrolase in solution activity was described in Example 7 by making a 500 μL solution containing 0.5 μM of enzyme, 100 mM triacetin, 100 mM H2O2 in 100 mM phosphate buffer, pH 7.2. The solution was mixed and incubated for 10 min at 37° C. A 10 μL aliquot was removed and diluted for detection as described in Example 7. Peracetic acid concentration was determined using a standard curve generated with a stock solution of peracetic acid (Aldrich). The experiment was also performed with no enzyme present as a control.

[3] = T. maritima C277S/C277T constructs, peracetic acid when bound to bovine enamel (Example 11); assay type: biochemical; conditions: bovine enamel exposed to 10 μM enzyme, 4 washes; 100 mM triacetin, 100 mM H2O2, 30 min, 37° C.; no enzyme 570
Procedure: as §1
The perhydrolase enzymes were also assessed for binding to bovine enamel substrates. Enamel substrates were prepared as described in Example 2 and 3. Each enamel block was hydrated in water for overnight at room temperature (˜22° C.). The enamel blocks were then equilibrated with 10 mM potassium phosphate buffer, pH7.2, for 10 min. The enamel substrates were rinsed 3 times the buffer. The enamel wells were filled with 500 μL of 10 μM enzyme solutions which was prepared by diluting in 10 mM phosphate buffer. The samples were incubated for 30 min with slow shaking at 37° C. The non-binding enzyme was removed by washing 4 times with phosphate buffer. Then, each enamel block was embedded inside a putty filled 24-well plate, with only the enamel top surface exposed. The perhydrolase activity from enamel bound enzyme was measured as described in Example 8. 100 μL reaction mixtures (100 mM phosphate buffer, pH7.2 and 100 mM H2O2 and 100 mM triacetin) was added on top of the enamel and incubated for 30 min at 37° C. A 90 μL aliquot was removed for detection via ABTS oxidation as noted in Example 8. Each sample data point represents an average of 3 independent enamel blocks.

[4] = T. maritima C277S/C277T constructs, peracetic acid in solution (Example 11); assay type: biochemical; conditions: 0.5 μM enzyme, 100 mM triacetin, 100 mM H2O2, pH 7.2, 10 min, 37° C.; no enzyme 114
Procedure: as §1
Perhydrolase enzymes listed in Table 5 were assessed for enzyme activity in solution as described in Example 7. The enzyme activity in solution was measured by making a 500 μl solution of 0.5 μM of each enzyme in 100 mM triacetin, 100 mM H2O2 and 10 mM phosphate buffer, pH 7.2. The solution was incubated for 10 min, at 37° C. After the reaction was stopped by mixing an aliquot with H3PO4, a 10 μL aliquot was removed for proper dilution, and then detected via ABTS oxidation as described in Example 7.

[5] = Retention of perhydrolase on hydroxyapatite (SDS-PAGE band strength); assay type: binding; conditions: relative to enzyme input = 1
Procedure: Perhydrolase enzymes listed in Table 6 were assessed for binding to hydroxyapatite. A dispersion of hydroxyapatite nanoparticles (Aldrich 677418) was made at 0.5% solids in 10 mM phosphate buffer at pH 7.2. Enzyme stock solution was added to the hydroxyapatite dispersion to a final concentration of 10 μM and incubated for 30 min in a microcentrifuge tube with gentle agitation. Each sample was centrifuged for 5 min at 10000 rpm. The supernatant was removed and additional buffer was added. The particles were resuspended and transferred to a new tube. The process was repeated two additional times. Samples of the original input of enzyme, the supernatant removed from the particles with each wash step and the final particles were prepared for SDS-PAGE analysis by combining 60 μL of sample, 20 μL of LDS buffer and 8 μL of reducing agent (Nu-PAGE). Samples were heated at 85° C. for 10 min. 25 μL of each sample was loaded on a 4-12% BisTris gel (Invitrogen) and run at 115 volts for 1.5 h. The gel was removed and stained with a 1:1 dilution of Simply Blue stain (Invitrogen) overnight and destained for 4 h in deionized water. The gel was analyzed and detection of enzyme in each fraction was estimated based on the presence of a band. The results of the analysis are provided in Table 7 with an indication of the relative strength of each band in the gel compared to the enzyme input (input=1) to determine the strength of binding between the hydroxyapatite surface and each enzyme.

B1: EZ-33: Lla-link1-H6, SEQ ID NO: 457 (protein)
chain: MTKINNWQDYQGSSLKPEDFDKFWDEKINLVSNHQFEFELIEKNLSSKVVNFYHLWFTAIDGAKIHAQLIVPKNLKEKYPAILQFHGYHCDSGDWVDKIGIVAEGNVVLALDCRGQGGLSQDNIQTMGMTMKGLIVRGIDEGYENLYYVRQFMDLITATKILSEFDFVDETNISAQGASQGGALAVACAALSPLIKKVTATYPFLSDYRKAYELGAEESAFEELPYWFQFKDPLHLREDWFFNQLEYIDIQNLAPRIKAEVIWILGGKDTVVPPITQMAAYNKIQSKKSLYVLPEYGHEYLPKISDWLRENQGPGSGGAGSPGSAGGPGSHHHHHH
For B1, the “Peracetic acid (ppm)” value [1] was 359.1 ppm and the “PAA (ppm)” value [2] was 1062.5 ppm.

B2: EZ-29: Bpu-link1-DenP308-H6, SEQ ID NO: 453 (protein)
chain: MQLFDLSLEELKKYKPKKTARPDFSDFWKKSLEELRQVEAEPTLESYDYPVKGVKVYRLTYQSFGHSKIEGFYAVPDQTGPHPALVRFHGYNASYDGGIHDIVNWALHGYATFGMLVRGQGGSEDTSVTPGGHALGWMTKGILSKDTYYYRGVYLDAVRALEVIQSFPEVDEHRIGVIGGSQGGALAIAAAALSDIPKVVVADYPYLSNFERAVDVALEQPYLEINSYFRRNSDPKVEEKAFETLSYFDLINLAGWVKQPTLMAIGLIDKITPPSTVFAAYNHLETDKDLKVYRYFGHEFIPAFQTEKLSFLQKHLLLSTGPGSGGAGSPGSAGGPGSDPTKPPRTPTANTSRPHHNFGSGGGGSPHHHHHH
For B2, the “Peracetic acid (ppm)” value [1] was 1299.8 ppm, the “activity after binding to hydroxyapatite (in words)” value ([1]; targeted vs untargeted B. pumilus fusion) was “higher binding activity compared to the untargeted EZ-27” and the “PAA (ppm)” value [2] was 2273.5 ppm.

B3: EZ-9: C277S-link1-H6, SEQ ID NO: 430 (protein)
chain: MAFFDLPLEELKKYRPERYEEKDFDEFWEETLAESEKFPLDPVFERMESHLKTVEAYDVTFSGYRGQRIKGWLLVPKLEEEKLPCVVQYIGYNGGRGFPHDWLFWPSMGYICFVMDTRGQGSGWLKGDTPDYPEGPVDPQYPGFMTRGILDPRTYYYRRVFTDAVRAVEAAASFPQVDQERIVIAGGSQGGGIALAVSALSKKAKALLCDVPFLCHFRRAVQLVDTHPYAEITNFLKTHRDKEEIVFRTLSYFDGVNFAARAKIPALFSVGLMDNISPPSTVFAAYNYYAGPKEIRIYPYNNHEGGGSFQAVEQVKFLKKLFEKGGPGSGGAGSPGSAGGPGSHHHHHH
For B3, the “Peracetic acid (ppm) On Enamel” value [3] was 612 ppm, the “Peracetic acid (ppm)” value [1] was 1885.1 ppm and the “Peracetic acid (ppm) In Solution” value [4] was 5499 ppm. The “Unbound (relative band strength)” value ([5]; 10 μM enzyme, 0.5% hydroxyapatite, pH 7.2) was 0.9, the “HAP Particles (relative band strength)” value ([5]; enzyme retained on particles after washes) was 0.05 and the “Wash1 (relative band strength)” value [5] was 0.01. For the same molecule, the “Wash2 (relative band strength)” value [5] was 0.00.

B4: EZ-31: Mlo-link1-HC263-H6, SEQ ID NO: 455 (protein)
chain: MPFPDLIQPELGAYVSSVGMPDDFAQFWTSTIAEARQAGGEVSIVQAQTTLKAVQSFDVTFPGYGGHPIKGWLILPTHHKGRLPLVVQYIGYGGGRGLAHEQLHWAASGFAYFRMDTRGQGSDWSVGETADPVGSTSSIPGFMTRGVLDKNDYYYRRLFTDAVRAIDALLGLDFVDPERIAVCGDSQGGGISLAVGGIDPRVKAVMPDVPFLCDFPRAVQTAVRDPYLEIVRFLAQHREKKAAVFETLNYFDCVNFARRSKAPALFSVALMDEVCPPSTVYGAFNAYAGEKTITEYEFNNHEGGQGYQERQQMTWLSRLFGVGGPGSGGAGSPGSAGGPGSPSAQSQLPDKHSGLHERAPQRYGPEPEPEPEPIPEPPKEAPVVIEKPKPKPKPKPKPPAHDHKNQKETHQRHAAGSGGGGSPHHHHHH
With B4 the “Peracetic acid (ppm)” value [1] was 241.4 ppm and the “PAA (ppm)” value [2] was 434.9 ppm.

B5: EZ-30: Mlo-link1-H6, SEQ ID NO: 454 (protein)
chain: MPFPDLIQPELGAYVSSVGMPDDFAQFWTSTIAEARQAGGEVSIVQAQTTLKAVQSFDVTFPGYGGHPIKGWLILPTHHKGRLPLVVQYIGYGGGRGLAHEQLHWAASGFAYFRMDTRGQGSDWSVGETADPVGSTSSIPGFMTRGVLDKNDYYYRRLFTDAVRAIDALLGLDFVDPERIAVCGDSQGGGISLAVGGIDPRVKAVMPDVPFLCDFPRAVQTAVRDPYLEIVRFLAQHREKKAAVFETLNYFDCVNFARRSKAPALFSVALMDEVCPPSTVYGAFNAYAGEKTITEYEFNNHEGGQGYQERQQMTWLSRLFGVGGPGSGGAGSPGSAGGPGSHHHHHH
With B5 the “Peracetic acid (ppm)” value [1] was 658.5 ppm and the “PAA (ppm)” value [2] was 468.8 ppm.

B6: EZ-32: Mlo-link1-DenP308-H6, SEQ ID NO: 456 (protein)
chain: MPFPDLIQPELGAYVSSVGMPDDFAQFWTSTIAEARQAGGEVSIVQAQTTLKAVQSFDVTFPGYGGHPIKGWLILPTHHKGRLPLVVQYIGYGGGRGLAHEQLHWAASGFAYFRMDTRGQGSDWSVGETADPVGSTSSIPGFMTRGVLDKNDYYYRRLFTDAVRAIDALLGLDFVDPERIAVCGDSQGGGISLAVGGIDPRVKAVMPDVPFLCDFPRAVQTAVRDPYLEIVRFLAQHREKKAAVFETLNYFDCVNFARRSKAPALFSVALMDEVCPPSTVYGAFNAYAGEKTITEYEFNNHEGGQGYQERQQMTWLSRLFGVGGPGSGGAGSPGSAGGPGSDPTKPPRTPTANTSRPHHNFGSGGGGSPHHHHHH
With B6 the “Peracetic acid (ppm)” value [1] was 419.3 ppm and the “PAA (ppm)” value [2] was 497.7 ppm.

B7: EZ-34: Lla-link1-HC263-H6, SEQ ID NO: 458 (protein)
chain: MTKINNWQDYQGSSLKPEDFDKFWDEKINLVSNHQFEFELIEKNLSSKVVNFYHLWFTAIDGAKIHAQLIVPKNLKEKYPAILQFHGYHCDSGDWVDKIGIVAEGNVVLALDCRGQGGLSQDNIQTMGMTMKGLIVRGIDEGYENLYYVRQFMDLITATKILSEFDFVDETNISAQGASQGGALAVACAALSPLIKKVTATYPFLSDYRKAYELGAEESAFEELPYWFQFKDPLHLREDWFFNQLEYIDIQNLAPRIKAEVIWILGGKDTVVPPITQMAAYNKIQSKKSLYVLPEYGHEYLPKISDWLRENQGPGSGGAGSPGSAGGPGSPSAQSQLPDKHSGLHERAPQRYGPEPEPEPEPIPEPPKEAPVVIEKPKPKPKPKPKPPAHDHKNQKETHQRHAAGSGGGGSPHHHHHH
In the case of B7, the “Peracetic acid (ppm)” value [1] is reported as 242.2 ppm and the “PAA (ppm)” value [2] is reported as 786 ppm.
